{"source": "paper doi:10.1101/2021.11.20.466133", "about": "(bioRxiv, 2021)", "proteins": {"B1": {"name": "Mycobacterium smegmatis c-di-AMP hydrolase (phosphodiesterase) MsPDE (enzyme)", "chain": "MPVTTTDPKTGLLTGPDAQIAGARVDARGAADLLTAASSVSVICHVYPDADTIGAGLALAQVLAASGKHVEVSFATPAQLPESLQSLPGGHLLVAPEAMRRDADLVVTVDIPSINRLGALSGLAGPGREVLVIDHHASNQLFGTANYIDPSADSTTMLVAELLDAWGKPIDEKVAHCLYAGLTTDTGSFRWATARAHRLAARLVELGVDNASISRTLLDTHPFAWLPMLSRVLATARLLPDALDGRGFVYAVVPHDEWSEARPEEVESIVDIVRTTQQAEVAAVFKEIEPMHWSVSMRAKSVNLASVASAFGGGGHPHAAGYSATGSADDVVQALARALG"}}, "target": "the molecule itself", "experiment": "SEC-MALS"}
{"protein": "B1", "values": [{"measurement": "stoichiometry N", "result": 2}]}
